# Measurements: the DeepSol protein solubility set
# Experiment: soluble on expression in E. coli; label from the status in PepcDB or PDB records
row,Sequence,soluble on expression in E. coli
1,TRTLRGVMRVGLVAKCLLLKGDLDLELVLLCKEKPTTALLDKVADNLAIQLAAVTEDKYEILQSVDDAAIVIKNTKEPPLSLTIHLTSPVVREEMEKVLAGETLSVNDPPDVLDRQKCLAALASLRHAKWFQARANGLKSCVIVIRVLRDLCTRVPTWGPLRGWPLELLCEKSIGTANRPMGAGEALRRVLECLASGIVMPDGSGIYDPCEKEATDAIGHLDRQQREDITQSAQHALRLAAFGQLHKVLGMD,not soluble
2,TSEEYYKRKKQIKKLMSDQYAFLDLHGFTLHEDLYFEGIYEGFFFRVCPATEYIKKGYAGKKAIEYVIIESFYRFASEATDMDREVKMSGEYNFGDVHFENHCAGFVPKDWKNPDFKANFDALITIFEREGLLPITKNDWESTFGQHSKKAKDASRKNPQR,not soluble
3,TSKETFTHYQPQGNSDPAHTATAPGGLSAKAPAMTPLMLDTSSRKLVAWDGTTDGAAVGILAVAADQTSTTLTFYKSGTFRYEDVLWPEAASDETKKRTAFAGTAISIV,soluble
4,TSKINWNISVNATTYKNKILTLPEEKRESGIWNGIFKMVEGGSYYDYYIKEWAGVDPEDGKAMWYKDVTDKNGNTTKETTKTYSEATDYKAGCALPDLYGGISTSLNAYGFDFSIALTYQLGGQGYDYTYATLMNSAQGAGTNYHNDILNAWTPENKYTDVPKLNAKESNNNSTSTRFLTSTSYLSLQNISVGYTLPKNWIAKLGCESLRVYFVADNVALLSARKGYDPRTNWNGESNYNYSALRSISGGITMKF,not soluble
5,TSKKKRQRGSRTHGGGSHKNRRGAGHRGGRGDAGRDKHEFHNHEPLGKSGFKRPQKVQEEAATIDVREIDENVTLLAADDVAEVEDGGFRVDVRDVVEEADDADYVKVLGAGQVRHELTLIADDFSEGAREKVEGAGGSVELTDLGEERQAEAEETEDADADEE,soluble
6,TTPMNLTDAIAYILRPFAVLKVPVNDIALMISVALRFIPTLMGETDKIMKAQRARGVDFGEGNLFEQMKVVVPIFIPLFVSSFNRAEELADAMEARGYQGGEGRTRFRILH,not soluble
7,TTPTVNATPKIHKRDYQKDVVYLYQFPRIDTVPNLSSFCLKTETFLRAFKIPHEVIETGSLRSRNGTLPFVELNGEHIPDSDLIEVRLRKHFQIPNLSAEDESHATALCRLADNHLLSIIIKYKAAEDAWYSALLRGVPGPNCLKTILKPIVRKLFMKKVHERTGGAIGNFTEDEAEMLCHKDLQAIQDSIKGKYLFGDKITSADCTVFGEVASAYYPFPNKFSRIIDSHYPKLHEYCDRIIEELY,not soluble
8,TVEKSVVFKAEGEHFTDQKGNTIVGSGSGGTTKYFRIPAMCTTSKGTIVVFADARHNTASDQSFIDTAAARSTDGGKTWNKKIAIYNDRVNSKLSRVMDPTCIVANIQGRETILVMVGKWNNNDKTWGAYRDKAPDTDWDLVLYKSTDDGVTFSKVETNIHDIVTKNGTISAMLGGVGSGLQLNDGKLVFPVQMVRTKNITTVLNTSFIYSTDGITWSLPSGYCEGFGSENNIIEFNASLVNNIRNSGLRRSFETKDFGKTWTEFPPMDKKVDNRNHGVQGSTITIPSGNKLVAAHSSAQNKNNDYTRSDISLYAHNLYSGEVKLIDDFYPKVGNASGAGYSCLSYRKNVDKETLYVVYEANGSIEFQDLSRHLPVIKSYN,soluble
9,TVLPKDIPGDSLKVTVGTANGKPGDTVTVPVTFADVAKMKNVGTCNFYLGYDASLLEVVSVDAGPIVKNAAVNFSSSASNGTISFLFLDNTITDELITADGVFANIKFKLKSVTAKTTTPVTFKDGGAFGDGTMSKIASVTKTNGSVTIDP,soluble
10,VAGDTTITIVGNLTADPELRFTPSGAAVANFTVASTPRIYDRQTGEWKDGEALFLRCNIWREAAENVAESLTRGARVIVSGRLKQRSFETREGEKRTVIEVEVDEIGPSLRYATAKVNKASRSGGFGSGSRPAPAQTSSASGDDPWGSAPASGSFGGGDDEPPF,soluble
11,VATLNESIEAGLEPGAVALILEAFPIEDRVRLWRALPLELHIDVLTEMRADVRFSIINALSEVELKLTLAKLDNLSLIEWADSLPESIINEALALIEKDELELYDQANEYEDDELGRWAERKIITLPFNITVGTAKQLMERYSYDTPQQVYLINRNKQFRGAVNYYEILRSDSGVRLKTLEIETVTVLDSKMTLPEAVEALEHSALPALPVTDADQTLIGEVDWQFALSTQREIYEARLMAGTGMDEGDDLFAPVLKSSQKRGV,not soluble
12,VAVVLDRQGKVQTVNGLFETELSYSQSEIAGRSLSEMSPPELSGDTHQKRALAAIRDGKHFSGTLRLVSKTGARVWLRTVVVPFKNETGGIEQITLYSSVLT,not soluble
13,VDKIYVIEENDPFIEEQIKAYGIDCIGKDVIPPYGEMTPDVLRKAIFGKTNDTIEYKSELVTPRPPSFCAGCPHRGFFYELGKRKNLIVGGDIGCYTLGFAPPYNGIDYVVCMGSAFGTAHGAQKVLNMKDDNEKRLVGVLGDSTFFHTGINGLLDVVYNRGNSISVILDNRITGMTGHQENPGSGYTLQGAKTKEVDIEGLVKACGIEHVRVINPNNLKEVNEALDWALAIEDEPSVIIT,not soluble
14,VDYSRTETLQFEDDEYYYYVKAVPKVGVTLPEKQVKHITEPHEEQPKEAKAAVNLKPEPMVQETVAIDTSQIQEADLEKNVDELLLTQSLNEELRQNQNEPEDDLSLTKSLGDLWTKKPGSGE,not soluble
15,VETASLDVYAKYVLRSICQQEWVGERCLKSLCEDSNDLQDPVLSSAQAQRLMQLICYPHRLLDNEDGENPQRQRIKRILQNLDQWTMRQSSLELQLMIKQTPNNEMNSLLENIAKATIEVFQRSAETGSSSGSTASNMPSSSKTKPVLSSLERSGVWLVAPLIAKLPTSVQGHVLKAAGEELEKGQHLGSSSRKERDRQKQKSMSLLSQQPFLSLVLTCLKGQDEQREGLLTSLYSQVHQIVN,not soluble
16,VFNSDAPLETTIKGMKTVMLGYDCRMSQQSPAYLERIVKDVKKYKKEDTLVIVNMHWGVEYRETPTNYQTQFGHAILDAGADIIMGAHPHRLESIEKYKDKYIVYSMGDFAFGADPTLLSRMTSMFQLRFTKEA,not soluble
17,VIGADVPRDSQRARVYAAEAFVRTLFDRVTAHGSPTVEFFGTQLTLPPEGRFGSVASVQRYVDDVLALPAVGQNWPTVSPVRVRARRAATAAHYENHGGTGTIAVPDRHTAGWAMRELVVLHEVAHHLCQVPPPHGPEFVATVCTLTELVMGPEVGHVFRVVYAQEGVR,soluble
18,VLTCNEAFARMRGQSVKEIEGSSIVSLYAPEDQQMVKDKLKITDSTGFCSCQAKMMRKDGTIFPVQIDVVGLKDENGQIMYRIVTVQDSTER,not soluble
19,VPPPGTMVMVERKVGSWVDGQPIDLQRDWRSWEQLPDSLKVAVIAGEDQHFAEHHGFDLPAIQQALAHNERGGSIRGASTLSQQVAKNVFLWSGRSWLRKGLEAWFTLLIETLWTKQRILEVYLNSAEWGPGVFGAQAAARYHFGLDAERLSRTQASQLAAVLPSPLKWSAARPGPYVRQRAAWIRQQMWQLGGDDYLLRLER,not soluble
20,VRQLLGLEGPIKRVECFDISHTMGEATVASCVVFDAVGPVRSQYRRYNITGITPGDDYAAMRQAIERRFRRAVEEDKQGERPDVLFIDGGAGQLAQAKMALNAVGVESVLLVGVSKGEERRAGHETLIMLDGQELHPGAASPALQFIQQVRDEAHRFAI,not soluble
21,VRWIGLSTGLVSAMLVAGLVACGSNSPASSPAGPTQGARSIVVFAAASLQSAFTQIGEQFKAGNPGVNVNFAFAGSSELATQLTQGATADVFASADTAQMDSVAKAGLLAGHPTNFATNTMVIVAAAGNPKKIRSFADLTRPGLNVVVCQPSVPCGSATRRIEDATGIHLNPVSEELSVTDVLNKVITGQADAGLVYVSDALSVATKVTCVRFPEAAGVVNVYAIAVLKRTSQPALARQFVAMVTAAAGRRILDQSGFAKP,not soluble
22,VSAASLSKSAPAEPQPGPPQPAAGPQALPAIGGLTPFSSVDWPGQLAAVVFIAGCPWRCHYCHNPHLQERARGLDWREVLDFLGRRRNLLDAVVFSGGEPLSEPRLPQLIDAARALGLRIGLHTGGIYPARFAEVLPRLDWVGLDIKTTAPRYDALTGRRGSAAPVDACLDLLLRSHCAFECRTTWHPDWLPEPQLLALAQSLCSRGVKHYAIQAYRSAPGTLATALPSEATQHALAACFSSFSCR,soluble
